Measurements reported in patent US20210122818A1 (BIOUNIVERSA S R L, published 2021).

Target: T1, recombinant BAG3 full-length protein (UniProt O95817 2-575, limits assumed)
T1 construct: mature; also called rBAG3; E. Coli rBAG3
Assay: method for the murine antibody not stated (Example 3, Octet)

T1 sequence (O95817 2-575 limits assumed): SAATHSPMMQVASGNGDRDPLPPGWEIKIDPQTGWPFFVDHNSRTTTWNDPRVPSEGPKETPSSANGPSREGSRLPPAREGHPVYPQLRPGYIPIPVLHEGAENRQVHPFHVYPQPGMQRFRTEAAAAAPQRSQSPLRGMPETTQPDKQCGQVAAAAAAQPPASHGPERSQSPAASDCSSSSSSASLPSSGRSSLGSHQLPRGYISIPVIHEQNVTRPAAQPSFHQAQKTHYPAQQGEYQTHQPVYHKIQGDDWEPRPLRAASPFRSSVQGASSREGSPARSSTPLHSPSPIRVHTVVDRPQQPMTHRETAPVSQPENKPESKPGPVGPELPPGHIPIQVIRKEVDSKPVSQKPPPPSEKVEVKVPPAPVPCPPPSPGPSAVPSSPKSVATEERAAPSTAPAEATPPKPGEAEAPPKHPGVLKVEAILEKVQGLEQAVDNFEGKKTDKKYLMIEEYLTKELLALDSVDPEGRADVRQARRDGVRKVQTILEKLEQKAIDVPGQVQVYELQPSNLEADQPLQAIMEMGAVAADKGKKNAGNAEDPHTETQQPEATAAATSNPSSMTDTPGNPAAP

B1: AC-2 murine antibody (antibody, V domains shown)
VH: EVQLQQSGAELVKPGASVKLSCTASGFNIKDTYMYWVKQRPEQGLEWIGGVDPANGNTRYDPKFQGKATLTADTSSSTAYLQLSSLTSEDTAVYYCGRDGAMDYWGQGTSVTVSS
VL: DIVMSQSPSSLAVSVGEKVTMSCKSSQSLLYSSNQKNYLAWHQQKPGQSPKLLIYWASTRESGVPDRFTGSGSGTDFTLTISSVKAEDLAIYYCQQYYTYPLTFGAGTKLELK
notes: Murine hybridoma antibody; also called anti-BAG3 mouse antibody (AC2); murine anti-BAG AC-2 antibody
Kd: 1 pM
